In assay [1] the target is human neurolysin (hNln), Ser38-Pro704, N-terminal 6xHis-tag, used in the activity assays (human, UniProt Q9BYT8 38-704). In words: enzyme inhibition.
Assay [2] has as its target rNln (Met37–Ser704), C-terminal 6xHis-tag, catalytically active (UniProt P42676 37-704). Description: fluorescence polarisation.

These results are taken from publication PMC11310207 (Scientific Reports, 2024).

Square brackets hold non-standard residues; d marks the D form. Ends that are not written are not given here. * marks the point of attachment. Dnp = O=[N+]([O-])c1ccc(*)c([N+](=O)[O-])c1; Mca = COc1ccc2c(CC(=O)*)cc(=O)oc2c1

B1: dynorphin A (1–7) (peptide)
peptide: YGGFLRR
In the case of B1, in assay [1], the binding result was “binds”.

B2: dynorphin A (1–10) (peptide)
peptide: YGGFLRRIRP
On to B2, for which the binding result in assay [1] is “binds”.

B3: dynorphin A (1–12) (peptide)
peptide: YGGFLRRIRPKL
What is called Ki is the equilibrium dissociation constant of an inhibitor or competing ligand from its target. B3: in assay [1], the Ki turned out to be 900 nM.

B4: Mca–Pro–Leu–Gly–Pro–D–Lys(DNP)–OH, quenched fluorogenic substrate of Nln (peptide)
peptide: Mca-PLGP[dK](Dnp)-OH
For B4, in assay [1], the binding result is given as “binds”.

B5: dynorphin A (1–11) (peptide)
peptide: YGGFLRRIRPK
Turning to B5, the binding result in assay [1] is reported as “binds”.

B6: FAM-GGFLRRIRPKLK, N-terminally FAM-labeled Dyn A (2–13) (peptide)
peptide: {FAM}-GGFLRRIRPKLK
By Kd is commonly meant the constant that tells how readily two partners part at equilibrium. B6 showed a Kd in assay [2] of 1470 nM.
